The text below walks through data of article PMC7280789, “Isotype Switching Converts Anti-CD40 Antagonism to Agonism to Elicit Potent Antitumor Activity” (Cancer Cell, 2020).

Test [1] concerns the target T1, full-length hCD40 expressed on CHO-k1 cells (Homo sapiens, UniProt P25942).
T1 construct: CD40, human; results call it the full-length CD40 molecule; methods: wild-type full-length extracellular (EC) domain (CRD1-4) cloned into pCIpuro that contains the CD40 transmembrane domain for membrane anchoring; also called full-length CD40 molecule; CRD1-4; source: CHO-k1, stably transfected (pCIpuro), on cells
As to the kind of experiment: flow cytometry on cells; CHO-k1 cells expressing full-length hCD40 or truncated variants CRD2-4 or CRD3-4 incubated with 10 μg/mL anti-CD40 mAb; bound mAb detected by anti-human Fc-PE. The note with it: one partner purified. For orientation: A flow cytometer gives signals particle by particle.

Test [2] deals with T2, hCD40 truncated variant CRD2-4 expressed on CHO-k1 cells (Homo sapiens, UniProt P25942, point mutant).
T2 construct: CD40, human, truncated variant CRD2-4 (lacks CRD1), with the CD40 transmembrane domain of the vector; source: CHO-k1, stably transfected (pCIpuro), on cells
T2 sequence (P25942 whole entry, looked up, change not shown, the tested form may be a part): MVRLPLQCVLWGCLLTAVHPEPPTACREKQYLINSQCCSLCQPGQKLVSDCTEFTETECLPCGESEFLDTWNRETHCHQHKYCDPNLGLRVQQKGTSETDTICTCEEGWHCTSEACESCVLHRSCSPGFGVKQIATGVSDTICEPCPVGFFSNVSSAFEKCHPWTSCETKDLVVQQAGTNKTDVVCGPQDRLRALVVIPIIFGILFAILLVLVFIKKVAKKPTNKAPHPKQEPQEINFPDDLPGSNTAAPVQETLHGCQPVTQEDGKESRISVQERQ
The test is described as above. The settings on record: one partner purified.

The target in test [3] is T3, hCD40 truncated variant CRD3-4 expressed on CHO-k1 cells (Homo sapiens, UniProt P25942, point mutant).
T3 construct: CD40, human, truncated variant CRD3-4 (lacks CRD1 and CRD2), with the CD40 transmembrane domain of the vector; source: CHO-k1, stably transfected (pCIpuro), on cells
T3 sequence (P25942 whole entry, looked up, change not shown, the tested form may be a part): as above
The description is as above. The note with it: one partner purified.

Test [4] concerns the target T4, His-tagged recombinant soluble full-length extracellular domain (EC) of hCD40 (Homo sapiens, UniProt P25942).
T4 construct: CD40, human, wild-type full-length extracellular (EC) domain (CRD1-4); Used in the western blot and, as 'hCD40 EC domain', in the SEC/SEC-SAXS complex with 341G2 F(ab); also called hCD40 EC domain; CD40EC; source: FreeStyle 293F, transfected (pcDNA3.1), purified from supernatant (Ni-NTA)
In words: far-Western, overlay or dot blot; western blot: His-tagged recombinant CD40 proteins run on 18% polyacrylamide gels, transferred to nitrocellulose, incubated with the anti-CD40 mAb at 4°C overnight, detected with goat anti-human IgG-HRP. The settings on record: both partners purified. A general note: In western blotting, separated proteins are transferred to a membrane and probed.

The target in test [5] is T4, His-tagged recombinant soluble …. In words: SEC; 341G2 F(ab) and hCD40 EC domain mixed at a 1:1 molar ratio for 1 hour, complex purified by SEC; then SEC-SAXS on Superdex 200 increase 3.2/200 in PBS, 20°C. The note with it: both partners purified. (In general: Size exclusion chromatography separates by hydrodynamic size, large species first.)
Test [6] addresses T5, CD40 on Ramos cells (Homo sapiens (Ramos cells), UniProt P25942).
T5 construct: CD40 on the surface of Ramos cells; also called CD40-expressing Ramos cells; source: endogenous, on Ramos cells
As to the kind of experiment: flow cytometry on cells; Ramos cells incubated with a fixed concentration of CD40L and various concentrations of anti-CD40 mAbs; remaining bound CD40L detected by anti-FLAG-APC. The note with it: one partner purified.

For test [7], the target named is T6, hCD40 (immobilised for SPR) (Homo sapiens, UniProt P25942).
T6 construct: CD40, human
T6 sequence (P25942 21-277): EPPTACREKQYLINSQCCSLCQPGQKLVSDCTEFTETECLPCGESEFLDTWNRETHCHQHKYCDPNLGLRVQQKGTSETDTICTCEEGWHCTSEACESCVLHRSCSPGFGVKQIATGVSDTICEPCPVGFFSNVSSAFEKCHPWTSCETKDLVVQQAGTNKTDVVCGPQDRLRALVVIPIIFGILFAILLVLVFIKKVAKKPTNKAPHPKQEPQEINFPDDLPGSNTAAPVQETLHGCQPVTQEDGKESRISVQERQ
As to the kind of experiment: SPR; Biacore T100; hCD40 immobilised on a CM5 chip by amine coupling; mAbs injected at 250, 50, 10, 2, 0.4 and 0 nM in HBS-EP+, 30 μL/min, 300 s association, 300 s dissociation; 1:1 Binding model. The note with it: both partners purified.

T5 sequence (P25942 21-277): as above
T4 sequence (P25942 21-193): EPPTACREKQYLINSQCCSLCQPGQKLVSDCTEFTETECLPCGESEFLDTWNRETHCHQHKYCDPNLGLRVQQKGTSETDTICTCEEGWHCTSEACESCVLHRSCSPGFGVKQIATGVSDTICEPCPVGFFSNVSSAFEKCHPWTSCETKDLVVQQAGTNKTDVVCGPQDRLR
T1 sequence (P25942 whole entry, looked up, the tested form may be a part): as the sequence (P25942 whole entry, looked up, change not shown, the tested form may be a part) above

B1: 341G2 (anti-CD40 mAb; isotype not stated for these experiments) (antibody, V domains shown)
VH: QVQLQQSGPGLVKPSQTLSLTCAISGDSVSSNSATWNWIRQSPSRDLEWLGRTYYRSKWYRDYVGSVKSRIIINPDTSNNQFSLQLNSVTPEDTAIYYCTRAQWLGGDYPYYYSMDVWGQGTTVTVSS
VL: EIVLTQSPATLSLSPGERATLSCRASQSVSSYLAWYQQKPGQAPRLLIYDASNRATGIPARFSGSGSGTDFTLTISSLEPEDFAVYYCQQRSNTFGPGTKVDIK
notes: 341G2 heavy chain; 341G2 light chain; also called bleselumab; source: produced either from hybridoma cells or by transient expression in CHO cells, purified on protein A columns; copies: 2 + 2
As to B1, the binding result in test [1] is “binds”; in test [2], “no binding (tested: 10 μg/mL)”; in test [3], “no binding (tested: 10 μg/mL)”; in test [4] it was “binds”.

B2: 341G2 F(ab) (Fab, V domains shown)
VH: B1 VH
VL: B1 VL
notes: may stand in the SASBDB entry of the CD40-341G2 F(ab) complex; may stand in SASBDB SASDHN8; also called F(ab) fragment of 341G2 hIgG1; source: digestion of 341G2 hIgG1 with papain-agarose, protein A depletion of IgG1 and Fc, purified by SEC
B2: the binding result in test [5] is “binds”.

B3: 341G2 hIgG4 (parental 341G2) (antibody, V domains shown)
VH: B1 VH
VL: B1 VL
notes: 341G2 heavy chain variable domain; human IgG4 heavy chain constant region (pEE6.4 vector encoding the isotype); may stand in SASBDB SASDHN8; IgG4; also called 341G2 h4; bleselumab; source: produced either from hybridoma cells or by transient expression in CHO cells, purified on protein A columns; copies: 2 + 2
As for B3, the binding result in test [6] and in test [7] was “binds” each time.

B4: 341G2 hIgG1 (antibody, V domains shown)
VH: B1 VH
VL: B1 VL
notes: 341G2 heavy chain variable domain; human IgG1 heavy chain constant region (pEE6.4 vector encoding the isotype); may stand in SASBDB SASDHN8; IgG1; also called 341G2 h1; hIgG1 variant of 341G2; source: produced either from hybridoma cells or by transient expression in CHO cells, purified on protein A columns; copies: 2 + 2
Consider B4, for which, in test [6], the binding result is “binds”.
